B2: BMPRII-Fc (R&D Systems) (Fc fusion)
chain: SQNQERLCAFKDPYQQDLGIGESRISHENGTILCSKGSTCYGLWEKSKGDINLVKQGCWSHIGDPQECHYEECVVTTTPPSIQNGTYRFCCCSTDLCNVNFTENFPPPDTTPLSPPHSFNRDET
B3: Recombinant human BMP10 growth factor (GF)-domain (R&D Systems) (ligand)
chain: NAKGNYCKRTPLYIDFKEIGWDSWIIAPPGYEAYECRGVCNYPLAEHLTPTKHAIIQALVHLKNSQKASKACCVPTKLEPISILYLDKGVVTYKFKYEGMAVSECGCR

Tests used:
[1] = biological target: B3; assay: SPR
[2] = biological target: B3; assay: SPR
[3] = biological target: B3; assay: SPR; BMP10 immobilised
[4] = biological target: B3; assay: SPR; BMP10 immobilised
[5] = biological target: T1, BMPRII ECD Q92H (human, UniProt Q13873-1 27-150, Q92H); assay: SPR
T1 sequence: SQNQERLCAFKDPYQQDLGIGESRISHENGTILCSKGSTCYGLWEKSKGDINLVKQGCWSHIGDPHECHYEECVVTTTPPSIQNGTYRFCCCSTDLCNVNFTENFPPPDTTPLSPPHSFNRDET

[6] = biological target: T2, BMPRII ECD G89W (human, UniProt Q13873-1 27-150, G89W); assay: SPR
T2 sequence: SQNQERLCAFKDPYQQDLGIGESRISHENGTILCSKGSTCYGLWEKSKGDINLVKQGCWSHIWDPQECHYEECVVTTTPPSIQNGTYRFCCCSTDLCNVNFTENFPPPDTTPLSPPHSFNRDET

[7] = biological target: T3, BMPRII ECD G89A (human, UniProt Q13873-1 27-150, G89A); assay: SPR
T3 sequence: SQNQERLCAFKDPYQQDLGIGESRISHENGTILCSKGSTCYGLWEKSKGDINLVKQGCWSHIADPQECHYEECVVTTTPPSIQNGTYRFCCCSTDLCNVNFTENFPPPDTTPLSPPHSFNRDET

[8] = biological target: T4, BMPRII ECD N126S (human, UniProt Q13873-1 27-150, N126S); assay: SPR
T4 sequence: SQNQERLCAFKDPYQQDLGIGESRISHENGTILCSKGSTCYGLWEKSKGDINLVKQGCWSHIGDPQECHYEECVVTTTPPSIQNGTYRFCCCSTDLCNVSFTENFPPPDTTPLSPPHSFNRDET

[9] = biological target: T5, BMPRII ECD G89E (human, UniProt Q13873-1 27-150, G89E); assay: SPR
T5 sequence: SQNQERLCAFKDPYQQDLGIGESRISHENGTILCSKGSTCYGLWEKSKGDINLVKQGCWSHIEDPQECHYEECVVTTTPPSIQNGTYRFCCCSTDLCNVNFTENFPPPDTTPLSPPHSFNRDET

[10] = biological target: T6, BMPRII ECD S107P (human, UniProt Q13873-1 27-150, S107P); assay: SPR
T6 sequence: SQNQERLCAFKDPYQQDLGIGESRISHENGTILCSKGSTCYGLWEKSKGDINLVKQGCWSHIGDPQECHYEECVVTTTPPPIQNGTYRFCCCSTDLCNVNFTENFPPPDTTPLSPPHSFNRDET

[11] = biological target: T7, BMPRII ECD E98K (human, UniProt Q13873-1 27-150, E98K); assay: SPR
T7 sequence: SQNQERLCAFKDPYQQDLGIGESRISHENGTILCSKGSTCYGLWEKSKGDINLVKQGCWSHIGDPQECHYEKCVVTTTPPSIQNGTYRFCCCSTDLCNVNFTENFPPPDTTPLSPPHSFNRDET

[12] = biological target: T1, BMPRII ECD Q92H; assay: SPR; remark: listed apart in the source
[13] = biological target: T2, BMPRII ECD G89W; assay: SPR; remark: listed apart in the source
[14] = biological target: T3, BMPRII ECD G89A; assay: SPR; remark: listed apart in the source
[15] = biological target: T4, BMPRII ECD N126S; assay: SPR; remark: listed apart in the source
[16] = biological target: T5, BMPRII ECD G89E; assay: SPR; remark: listed apart in the source
[17] = biological target: T6, BMPRII ECD S107P; assay: SPR; remark: listed apart in the source
[18] = biological target: T7, BMPRII ECD E98K; assay: SPR; remark: listed apart in the source
[19] = biological target: BMPRII ECD ΔF3 (human, UniProt Q13873-1 27-150); assay: SPR
[20] = biological target: BMPRII ECD ΔF1 (human, UniProt Q13873-1 27-150); assay: SPR
[21] = biological target: B2; assay: SPR; BMPRII-Fc immobilised
[22] = biological target: B2; assay: SPR; BMPRII-Fc immobilised
[23] = biological target: B2; assay: SPR; BMP10 pre-complexed with ALK1 ECD
[24] = biological target: B2; assay: SPR; BMP10 pre-complexed with ALK1 ECD

B1: BMPRII extracellular domain (ECD), wild type (domain or fragment)
chain: SQNQERLCAFKDPYQQDLGIGESRISHENGTILCSKGSTCYGLWEKSKGDINLVKQGCWSHIGDPQECHYEECVVTTTPPSIQNGTYRFCCCSTDLCNVNFTENFPPPDTTPLSPPHSFNRDET
Work on B1 yielded a Kd [1] of 1190 nM and a koff [2] of 0.161 s⁻¹.

Work on B2 yielded a koff [3] of 0.000857 s⁻¹ and a Kd [4] of 4.47 nM.

B3 gave a Kd [5] of 1220 nM, a Kd [6] of 237000 nM and a Kd [7] of 3190 nM. It also gave a Kd [8] of 1320 nM, a Kd [9] of 153000 nM and a Kd [10] of 328 nM. For the same binder, the Kd [11] was 1070 nM, the koff [12] was 0.147 s⁻¹ and the koff [13] was 0.433 s⁻¹. It also gave a koff [14] of 0.331 s⁻¹, a koff [15] of 0.14 s⁻¹ and a koff [16] of 0.609 s⁻¹. The koff [17] was 0.0423 s⁻¹, the koff [18] was 0.158 s⁻¹ and the Kd [19] was 4170 nM. For the same binder, the koff [19] was 0.49 s⁻¹, the Kd [20] was 6630 nM and the koff [20] was 0.309 s⁻¹. For the same binder, the Kd [21] was 0.338 nM, the koff [22] was 0.000838 s⁻¹ and the Kd [23] was 1.6 nM. The koff [24] was 0.00138 s⁻¹.
